What was measured:
Conditions in all cases: remark: other sources report otherwise
[1] = molecular target: T1, s-H1-mini2-cluster1 + 5 + 6-GCN4 (A/Brisbane/59/2007) (influenza A virus H1N1); test: BLI steady state titration, 1:1 model
[2] = molecular target: T1, s-H1-mini2-cluster1 + 5 + 6-GCN4 …
[3] = molecular target: mini2 cluster11 + 5 (A/Brisbane/59/2007) (influenza A virus H1N1), A8C8J4; test: FACS
[4] = molecular target: miniHA cluster1 (A/Brisbane/59/2007) (influenza A virus H1N1), A8C8J4; test: FACS
[5] = molecular target: mini2-cluster11 + 5 + 6 (A/Brisbane/59/2007) (influenza A virus H1N1), A8C8J4; test: FACS
[6] = molecular target: mini2-cluster1 + 5 (A/Brisbane/59/2007) (influenza A virus H1N1), A8C8J4; test: FACS
[7] = molecular target: H1-mini2-cluster1 + 5 + 6-trim (influenza A virus H1N1), A8C8J4; test: FACS

B1: CR6261 (antibody, V domains shown)
VH: EVQLVESGAEVKKPGSSVKVSCKASGGPFRSYAISWVRQAPGQGPEWMGGIIPIFGTTKYAPKFQGRVTITADDFAGTVYMELSSLRSEDTAMYYCAKHMGYQVRETMDVWGKGTTVTVSS
VL: QSVLTQPPSVSAAPGQKVTISCSGSSSNIGNDYVSWYQQLPGTAPKLLIYDNNKRPSGIPDRFSGSKSGTSATLGITGLQTGDEANYYCATWDRRPTAYVVFGGGTKLTVLG
[1]
  Kd: 190 nM
[2]
  BLI maximum response: 0.25 nm
[3]
  % positive cells: 80%
  MFI relative to full-length HA: 50%
[4]
  % positive cells: 60%
  MFI relative to full-length HA: 10%
[5]
  % positive cells: 80%
[6]
  % positive cells: 80%
[7]
  % positive cells: 80%
  fold reduction of MFI against SEQ ID NO: 46: 3 to 4 fold

From US20140357845A1
